Data from article PMC9472616 (2022).

B1: BD-368 (antibody, V domains shown)
VH: EVQLLESGGGVVQPGGSLRLSCAASGFAFTTYAMNWVRQAPGRGLEWVSAISDGGGSAYYADSVKGRFTISRDNSKNTLYLQMNSLRAEDTAVYYCAKTRGRGLYDYVWGSKDYWGQGTLVTVSS
VL: not shown
B2: REGN10987 (antibody, V domains shown)
VH: QVQLVESGGGVVQPGRSLRLSCAASGFTFSNYAMYWVRQAPGKGLEWVAVISYDGSNKYYADSVKGRFTISRDNSKNTLYLQMNSLRTEDTAVYYCASGSDYGDYLLVYWGQGTLVTVSS
VL: QSALTQPASVSGSPGQSITISCTGTSSDVGGYNYVSWYQQHPGKAPKLMIYDVSKRPSGVSNRFSGSKSGNTASLTISGLQSEDEADYYCNSLTSISTWVFGGGTKLTVL
B3: CB6 (antibody, V domains shown)
VH: EVQLVESGGGLVQPGGSLRLSCAASGFTVSSNYMSWVRQAPGKGLEWVSVIYSGGSTFYADSVKGRFTISRDNSMNTLFLQMNSLRAEDTAVYYCARVLPMYGDYLDYWGQGTLVTVSS
VL: not shown
B4: REGN10933 (antibody, V domains shown)
VH: QVQLVESGGGLVKPGGSLRLSCAASGFTFSDYYMSWIRQAPGKGLEWVSYITYSGSTIYYADSVKGRFTISRDNAKSSLYLQMNSLRAEDTAVYYCARDRGTTMVPFDYWGQGTLVTVSS
VL: DIQMTQSPSSLSASVGDRVTITCQASQDITNYLNWYQQKPGKAPKLLIYAASNLETGVPSRFSGSGSGTDFTFTISGLQPEDIATYYCQQYDNLPLTFGGGTKVEIK

These binders were tested against SARS-CoV-2 WT RBD (SARS-CoV-2, UniProt P0DTC2 319-541) (assay: SPR).

Q: Which Kd does the source give for B1 here?
A: 3.47 nM

Q: For B2, which Kd is on record?
A: 2.22 nM

Q: How did the Kd turn out when B3 was run?
A: 30 nM

Q: With B4 as the binder, how does the Kd read?
A: 1.6 nM
